The results in this text go back to the supplement of paper PMC7125110.

First the molecules themselves.
B1: glmS ribozyme (parent)
chain: AUAAAAGCGCCAGAACUACAGAAAUGUAGUUGACGAGGAGGAGGUUUAUCGAAUUUUCGGCGGAUGCCUCCAAA

± gives the standard error. For some assays here: This sample holds only a part of the variants without activity. A value given as a limit tells only on which side of the number the result lay.

Common to all, as to settings: with glucosamine-6-phosphate
The variants in data set [1] derive from B1. Kind of data set: kcat; higher = faster cleavage; RNA array. An outline of the steps:
(§1)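 Glucosamine-6-phosphate in HEPES/KCl/Mg(OAc)2 buffer, at 40 μM to 10 mM, was flowed over barcoded ribozyme variants transcribed in situ by E. coli RNA polymerase on sequenced MiSeq chips. Tracking was through a hybridised Cy3 probe at 37 °C. kobs, kcat and KM came from exponential decay fits and weighted Michaelis–Menten fits of normalised per-tile medians.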

In data set [2] the parent is B1. Kind of data set: self-cleavage kobs at 40 uM GlcN6P; higher = faster cleavage; RNA array. An outline of the steps:
as §1

The variants in data set [3] derive from B1. The data set is described as follows: self-cleavage kobs at 160 uM GlcN6P; higher = faster cleavage; RNA array. An outline of the steps:
as §1

Variants of B1 are the subject of data set [4]. Kind of data set: self-cleavage kobs at 640 uM GlcN6P; higher = faster cleavage; RNA array. An outline of the steps:
as §1

In data set [5] the parent is B1. Kind of data set: self-cleavage kobs at 2500 uM GlcN6P; higher = faster cleavage; RNA array. An outline of the steps: as §1
Data set [6] covers variants of B1. Kind of data set: self-cleavage kobs at 10000 uM GlcN6P; higher = faster cleavage; RNA array. In a few lines: as §1
Data set [7] covers variants of B1. The data set is described as follows: KM; higher = weaker cofactor use; RNA array. An outline of the steps:
as §1

As for A14G A36U, the kcat in data set [1] was 1.56e-05 ± 2.2e-07 s⁻¹. Further, in data set [2], the “self-cleavage kobs at 40 uM GlcN6P” value is below 1e-05 s⁻¹. Further, the “self-cleavage kobs at 160 uM GlcN6P” value in data set [3] was below 1e-05 s⁻¹.

Turning to G21U U30C U57C G66C C67U, the “self-cleavage kobs at 40 uM GlcN6P” value in data set [2] is below 1e-05 s⁻¹.

For the variant U31A A64G, the “self-cleavage kobs at 40 uM GlcN6P” value in data set [2] was found to be 0.000322 ± 8.5e-05 s⁻¹. The “self-cleavage kobs at 160 uM GlcN6P” value in data set [3] came out at 0.000708 ± 0.0002 s⁻¹. In addition, the “self-cleavage kobs at 640 uM GlcN6P” value in data set [4] stood at 0.00331 ± 0.0006 s⁻¹. The “self-cleavage kobs at 2500 uM GlcN6P” value in data set [5] amounted to 0.00394 ± 0.0012 s⁻¹. The “self-cleavage kobs at 10000 uM GlcN6P” value in data set [6] was found to be 0.0255 ± 0.0096 s⁻¹.

Regarding G7A A12G U30C U49A C71U, in data set [2], the “self-cleavage kobs at 40 uM GlcN6P” value was below 1e-05 s⁻¹.

A12C A33U: the kcat in data set [1] worked out at 0.000132 ± 1.7e-05 s⁻¹. Further, in data set [7], the KM was found to be 3330 ± 1200 µM. In data set [5], the “self-cleavage kobs at 2500 uM GlcN6P” value was 6.22e-05 ± 7.4e-06 s⁻¹. Moreover, in data set [6], the “self-cleavage kobs at 10000 uM GlcN6P” value was 9.81e-05 ± 6.4e-06 s⁻¹.

Turning to C8A U45C, the “self-cleavage kobs at 40 uM GlcN6P” value in data set [2] is below 1e-05 s⁻¹. The “self-cleavage kobs at 640 uM GlcN6P” value in data set [4] was below 1e-05 s⁻¹. For the same variant, the “self-cleavage kobs at 2500 uM GlcN6P” value in data set [5] was below 1e-05 s⁻¹.

Consider G63C U65C, for which the “self-cleavage kobs at 40 uM GlcN6P” value in data set [2] is below 1e-05 s⁻¹. Further, in data set [6], the “self-cleavage kobs at 10000 uM GlcN6P” value was below 1e-05 s⁻¹.

Take A33C G44C: in data set [2], the “self-cleavage kobs at 40 uM GlcN6P” value is below 1e-05 s⁻¹. Also, the “self-cleavage kobs at 160 uM GlcN6P” value in data set [3] was below 1e-05 s⁻¹. Further, in data set [4], the “self-cleavage kobs at 640 uM GlcN6P” value is below 1e-05 s⁻¹. Besides, in data set [5], the “self-cleavage kobs at 2500 uM GlcN6P” value was below 1e-05 s⁻¹. The “self-cleavage kobs at 10000 uM GlcN6P” value in data set [6] is below 1e-05 s⁻¹.

Consider A12C C34G G37U, for which the “self-cleavage kobs at 40 uM GlcN6P” value in data set [2] was below 1e-05 s⁻¹. For the same variant, the “self-cleavage kobs at 10000 uM GlcN6P” value in data set [6] is below 1e-05 s⁻¹.

In the case of A15C G40U, in data set [1], the kcat is 0.000399 ± 4.3e-05 s⁻¹. The KM in data set [7] was determined as 1140 ± 230 µM. Further, in data set [3], the “self-cleavage kobs at 160 uM GlcN6P” value is 5.39e-05 ± 1e-05 s⁻¹. Besides, the “self-cleavage kobs at 640 uM GlcN6P” value in data set [4] was 0.000135 ± 1.4e-05 s⁻¹. Further, in data set [5], the “self-cleavage kobs at 2500 uM GlcN6P” value was determined as 0.000333 ± 5.3e-05 s⁻¹. For the same variant, the “self-cleavage kobs at 10000 uM GlcN6P” value in data set [6] turned out to be 0.000348 ± 4.2e-05 s⁻¹.

As for U31G C61U, in data set [2], the “self-cleavage kobs at 40 uM GlcN6P” value is below 1e-05 s⁻¹. For the same variant, in data set [3], the “self-cleavage kobs at 160 uM GlcN6P” value is below 1e-05 s⁻¹. The “self-cleavage kobs at 640 uM GlcN6P” value in data set [4] is below 1e-05 s⁻¹. Moreover, in data set [5], the “self-cleavage kobs at 2500 uM GlcN6P” value is below 1e-05 s⁻¹.

On to C50G C68G, for which, in data set [2], the “self-cleavage kobs at 40 uM GlcN6P” value was found to be 0.00159 ± 0.00078 s⁻¹. The “self-cleavage kobs at 640 uM GlcN6P” value in data set [4] was 0.000121 ± 1.1e-05 s⁻¹. For the same variant, the “self-cleavage kobs at 2500 uM GlcN6P” value in data set [5] stood at 0.000142 ± 1.2e-05 s⁻¹. For the same variant, the “self-cleavage kobs at 10000 uM GlcN6P” value in data set [6] came to 6.8e-05 ± 4.8e-06 s⁻¹.

As to A14U C61A, the “self-cleavage kobs at 40 uM GlcN6P” value in data set [2] was below 1e-05 s⁻¹. In data set [6], the “self-cleavage kobs at 10000 uM GlcN6P” value was below 1e-05 s⁻¹.

With G51U U65G, the KM in data set [7] was found to be 63.4 ± 18 µM.

With U55C G63U U69A, the “self-cleavage kobs at 40 uM GlcN6P” value in data set [2] is below 1e-05 s⁻¹. In addition, in data set [4], the “self-cleavage kobs at 640 uM GlcN6P” value is below 1e-05 s⁻¹. The “self-cleavage kobs at 10000 uM GlcN6P” value in data set [6] is below 1e-05 s⁻¹.

For G13U A48C, the KM in data set [7] was found to be 3030 ± 610 µM.

Take A12U U45G U55C: the “self-cleavage kobs at 40 uM GlcN6P” value in data set [2] turned out to be 0.000356 ± 7.4e-05 s⁻¹. The “self-cleavage kobs at 10000 uM GlcN6P” value in data set [6] amounted to 0.00793 ± 0.002 s⁻¹.

With C10A A14G G44C, the “self-cleavage kobs at 40 uM GlcN6P” value in data set [2] was below 1e-05 s⁻¹. The “self-cleavage kobs at 2500 uM GlcN6P” value in data set [5] was below 1e-05 s⁻¹. For the same variant, in data set [6], the “self-cleavage kobs at 10000 uM GlcN6P” value was below 1e-05 s⁻¹.

Regarding C16U U55A, the “self-cleavage kobs at 40 uM GlcN6P” value in data set [2] was found to be 0.000949 ± 0.00012 s⁻¹. Also, the “self-cleavage kobs at 160 uM GlcN6P” value in data set [3] was found to be 0.00192 ± 0.00041 s⁻¹. Moreover, in data set [4], the “self-cleavage kobs at 640 uM GlcN6P” value is 0.00568 ± 0.0014 s⁻¹. The “self-cleavage kobs at 2500 uM GlcN6P” value in data set [5] turned out to be 0.0131 ± 0.0022 s⁻¹. Moreover, the “self-cleavage kobs at 10000 uM GlcN6P” value in data set [6] came out at 0.0419 ± 0.0089 s⁻¹.

For the variant A6C G44U C68G, the “self-cleavage kobs at 40 uM GlcN6P” value in data set [2] is below 1e-05 s⁻¹. Moreover, in data set [4], the “self-cleavage kobs at 640 uM GlcN6P” value is below 1e-05 s⁻¹. Moreover, the “self-cleavage kobs at 10000 uM GlcN6P” value in data set [6] was below 1e-05 s⁻¹.

For the variant G37C U57G, the kcat in data set [1] amounted to 1.13e-05 ± 4.5e-06 s⁻¹. The “self-cleavage kobs at 160 uM GlcN6P” value in data set [3] is below 1e-05 s⁻¹. The “self-cleavage kobs at 10000 uM GlcN6P” value in data set [6] is below 1e-05 s⁻¹.

Take A14G A15C U54G: the “self-cleavage kobs at 40 uM GlcN6P” value in data set [2] is 0.000827 ± 0.00016 s⁻¹. The “self-cleavage kobs at 10000 uM GlcN6P” value in data set [6] was 0.048 ± 0.017 s⁻¹.
